Biological target: HIV-1_(JR-FL) Env(−)ΔCT glycoprotein (uncleaved, cytoplasmic tail-truncated envelope glycoprotein precursor) (HIV-1 (isolate JR-FL))
Experiment: cryo-EM structure

Substance: HIV-1_(JR-FL) Env(−)ΔCT glycoprotein (uncleaved, cytoplasmic tail-truncated envelope glycoprotein precursor) (natural protein)
- stoichiometry N: 3

— paper PMC3443289
